This passage reports elution pH, Kd and stoichiometry N results from publication PMC9568614.

pKd: −log10 of the molar value. “And” between values parts separate entries of the source, which are not always exact repeats. Equal values may be shown once.

Assay [1] has as its target FcRn coupled to the FcRn Affinity Column (Roche) (UniProt P55899). As to the kind of experiment: FcRn-affinity chromatography; FcRn Affinity Column (Roche); antibody or fragment injected at pH 5.5 (20 mM MES, 150 mM NaCl), pH gradient to pH 8.8 (20 mM Tris-HCl, 150 mM NaCl); elution pH read.
The target in assay [2] is recombinant human FcRn (FcRn alpha-chain with C-terminal BirA 10x-Histidine tag, with beta-2-microglobulin) (human) (UniProt P55899). As to the kind of experiment: SPR. Background: In SPR one partner is held on a chip, and binding of the other changes the refractive index at the surface.
For assay [3], the target named is Fc-MST-HN (human). As to the kind of experiment: SPR; IBIS MX96; IgG or Fc randomly coupled on a SensEye G Easy2Spot array at four spotting concentrations (60, 30, 15, 7.5 nM); monomeric human FcRn injected 0.49-1000 nM in PBS, 0.075% Tween 80, pH 7.4; equilibrium analysis, Langmuir 1:1 model; one KD for each spot (with its RU), later interpolated to Rmax = 700 RU.

The target in the next assay is anti-HEL IgG1-WT (human). In words: SPR; IBIS MX96; IgG or Fc randomly coupled on a SensEye G Easy2Spot array at four spotting concentrations (60, 30, 15, 7.5 nM); monomeric human FcRn injected 0.49-1000 nM in PBS, 0.075% Tween 80, pH 6.0; equilibrium analysis, Langmuir 1:1 model; one KD for each spot (with its RU), later interpolated to Rmax = 700 RU.
Assay [4] concerns the target Fc-MST-HN (human). The description is as above.
The target of the next assay is Fc-WT (human). The description is as above.
Assay [5] deals with anti-HEL IgG1-MST-HN (human). The description is as above.
Assay [6] deals with recombinant human FcRn (FcRn alpha-chain with C-terminal BirA 10x-Histidine tag, with beta-2-microglobulin) (human) (UniProt P55899). As to the kind of experiment: SPR; pH 6.0.
Assay [7] deals with Fc-MST-HN (IgG1 Fc fragment with M252Y, S254T, T256E, H433K, N434F) (human). In words: crystal structure; Fc-MST-HN with EndoH- and thrombin-treated FcRn:beta2M, complex isolated by preparative SEC; crystals from 0.1 M sodium cacodylate pH 7.0, 293 K.
In assay [8] the target is recombinant human FcRn (FcRn alpha-chain with C-terminal BirA 10x-Histidine tag, with beta-2-microglobulin) (human) (UniProt P55899). As to the kind of experiment: SPR; pH 7.4.
Another assay concerns the target Fc-MST (human). As to the kind of experiment: ITC; 37 °C, PEAQ-ITC; as drawn in the figure FcRn:b2M titrated into the Fc (reverse setup: 6 uM in the cell, 165 uM in the syringe); fit A + B + B with 2 symmetric sites, macroscopic K (Sedphat); buffer and pH not stated; four runs for Fc-MST-HN (values averaged), one for Fc-YTE. A general note: Isothermal titration calorimetry measures the heat released or taken up as one component is titrated into another.

One may read the pKd as the Kd on a negative log10 scale, so that one unit is a factor of ten. What is called stoichiometry N is a count of units in the complex or per binding partner.

On to “Fc-MST-HN (IgG1 Fc fragment with M252Y, S254T, T256E, H433K, N434F) (domain or fragment)”, for which, in assay [1], the elution pH was found to be 8.7 pH. Turning to “anti-HEL IgG1-WT (full-size IgG1) (from UniProt P01857)”, the pKd in assay [2] is 6.42.

As to “anti-HEL IgG1-MST-HN (full-size IgG1) (antibody)”, the elution pH in assay [1] was found to be 8.7 pH.

As to “recombinant human FcRn (FcRn α-chain with ß2-microglobulin) (from UniProt P55899 24-297; P61769 21-119) (receptor)”, the pKd with Fc-MST-HN (human) [3] was 5.94 and 5.98 and 6.08; in the assay with anti-HEL IgG1-WT (human) it was 6.22; in the assay with Fc-MST-HN (human) [4], 7.43 and 7.47 and 7.49; with Fc-WT (human), 6.62 and 6.57; in [5] it was 7.43 and 7.47.

In turn, “anti-HEL IgG1-WT (full-size IgG1) (antibody)” registered an elution pH in [1] of 7 pH. As for “anti-biotin IgG1-WT (from UniProt P01857)”, in assay [6], the pKd was 6.70. The substance “Fc-WT (wild-type human IgG1 Fc fragment) (domain or fragment)” registered an elution pH in assay [1] of 7 pH.

Consider “FcRn:beta2M (FcRn residues 1-297 with beta-2-microglobulin residues 1-119), EndoH-treated, tags removed by thrombin (from UniProt P55899 24-297; P61769 21-119) (complex)”, for which the stoichiometry N in assay [7] came out at 2 FcRn per Fc. On to “anti-HEL IgG1-MST-HN (full-size IgG1) (from UniProt P01857)”, for which the pKd in [8] is 6.05; in assay [2], 7.41.

Consider “FcRn:ß2M (recombinant extracellular domain of human FcRn in complex with beta-2-microglobulin, as used for ITC) (from UniProt P55899 24-297; P61769 21-119) (receptor)”, for which, in the assay with Fc-MST (human), the pKd was 7.18.
